In patent US20070238143A1, “Metal ion mediated fluorescence superquenching assays, kits and reagents” (priority 2003, published 2007):
Blank lines part the entries; values can stand above or below the molecule they belong to.

Tests used:
[1] = target: T1, protein tyrosine phosphatase 1B (PTP-1B) (Homo sapiens, UniProt P18031); experiment: Protein tyrosine phosphatase 1B (PTP-1B) metal ion mediated superquenching assay, inhibition; type: biochemical; conditions: inhibitor curve; FIG. 7
T1 construct: purchased Biomol
T1 sequence (P18031 1-435): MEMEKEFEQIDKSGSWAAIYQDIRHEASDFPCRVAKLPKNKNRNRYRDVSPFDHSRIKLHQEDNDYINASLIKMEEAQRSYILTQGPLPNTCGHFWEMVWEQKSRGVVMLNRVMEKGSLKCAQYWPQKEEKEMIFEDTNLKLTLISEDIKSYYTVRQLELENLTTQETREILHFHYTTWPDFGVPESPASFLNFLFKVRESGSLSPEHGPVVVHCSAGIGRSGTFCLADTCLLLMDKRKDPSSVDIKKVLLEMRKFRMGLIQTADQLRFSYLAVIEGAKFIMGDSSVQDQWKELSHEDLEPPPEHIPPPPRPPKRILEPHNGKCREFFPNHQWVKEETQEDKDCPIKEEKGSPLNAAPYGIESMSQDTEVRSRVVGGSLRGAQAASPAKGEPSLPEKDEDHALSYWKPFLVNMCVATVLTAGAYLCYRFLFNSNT
Protocol: For detection of phosphatase activity:
Recombinant PKA was purchased from Promega. […] Polystyrene amine functionalized beads were obtained from Interfacial Dynamics.
The format was tested for detection of protein tyrosine phosphatase activity 1B (PTP-1B) on a peptide substrate of different length and sequence composition than the one used for PKA.

Rhodamine-LRRASLG = tested on: T2, Rhodamine-LRRASLG
T2 sequence: LRRASLG

biotin-LRRASLG = tested on: T3, biotin-LRRASLG
T3 sequence: LRRASLG

Rhodamine-LRRA(pS)LG = tested on: T4, Rhodamine-LRRA(pS)LG
T4 sequence: LRRASLG

[2] = tested on: myelin basic protein (MBP)

IC50 [1]: 0.0264 µM
Molecule: CCCCCCCCCCCCCCCC(=O)C1=C(O)C(CO)OC1=O (stereo not shown) [RK-682]

Molecule: Recombinant Protein Kinase A (PKA)
endpoint measurement of PKA enzyme activity (polymer quench) (Rhodamine-LRRASLG): an increase in polymer quench correlates with enzyme concentration | two-step PKA endpoint assay (fluorescence quench) (biotin-LRRASLG): the assays perform using either synthetic substrates with an N-terminal quencher or using biotinylated substrates to which a streptavidin-fluorescein conjugate is added

Molecule: Trypsin
Sample (sensor fluorescence after trypsin reaction) (Rhodamine-LRRA(pS)LG): 42100 | Signal Increase (Rhodamine-LRRA(pS)LG): 34400 | Signal/Background (Rhodamine-LRRA(pS)LG): 5.42

Molecule: kinase PKCα
blocking kinase assay (fluorescence turn-on) [2]: The resulting fluorescence correlates with the extent of mbp phosphorylation
